According to patent US20130302399A1 (ALDERBIO, published 2013):
Numbering of substitutions follows the chain as printed.

B1: Ab8 (antibody, human IgG1, kappa, N297A, V domains shown)
VH: QEQLVESGGGLVQPEGSLTLTCTASGFSFTSDYYMCWVRQAPGKGLEWIGCISTGDGSTYYASWAKGRFTISKPSSTTVTLQMTRLTAADTATYFCARDRYYSYAYGAYVYASDLWGPGTLVTVSS
VL: DIVMTQTPASVSEPVGGTVTINCQASESIRNYLSWYQQKPGQRPKLLIYGASTLASGVPSRFKGSGSGTDFTLTISDLECADAATYYCQSNYGISSRSYVNGFGGGTEVVVKR
notes: also called antibody Ab8
B2: Ab3 (antibody, human IgG1, kappa, N297A, V domains shown)
VH: QSVEESGGRLVTPGGSLTLTCTASGFSLSSYYMSWVRQAPGKGLEWIGIIYPSGSTYYASWAKGRFTISKTSTTVDLKITSPTVEDTATYFCARGGAYATLNLWGPGTLVTVSS
VL: AVLTQTPSPVSAAVGGTVTISCQSSQSVYHNNLLSWYQQKPGQPPKLLIYDASKLTSGVSSRFSGSGSGTQFTLTISGVQCDDAATYYCLGGYDDDADNGFGGGTEVVVKR
notes: also called antibody Ab3
B3: Ab6 (antibody, human IgG1, kappa, N297A, V domains shown)
VH: QEQLEESGGDLVKPEGSLTLTCTASGFSFSSNYWICWVRQAPGKGLEWIGCIRDGGGTYYASWAKGRLTISMTSSTTVTLQLNSLTAADTATYFCASDINDGWLGQFNLWGPGTLVTVSS
VL: DIVMTQTPASVEVAVGGTVTIKCQASQSISAYLAWYQQKPGQPPKLLIYRAYTLASGVPSRFKGSGSGTQFTLTISDLECADAATYYCQSYYSVTTNTYGNTFGGGTEVVVKR
notes: also called antibody Ab6
B4: Ab17 (antibody, human IgG1, kappa, N297A, V domains shown)
VH: QEQLEESGGDLVKPEGSLTLTCTASGFSFSSSYWICWVRQAPGKGLEWIGCIRPGSADYYASWAKGRFTISRASSSTVTLQMTSLTAADTATYFCASDINDGWLGQFNLWGPGTLVTVSS
VL: B3 VL with I2V, V13A, Q27L, S30A, A31D, Q37L, Y52S, Q70E, F71Y
notes: also called antibody Ab17
B5: Ab14 (antibody, human IgG1, kappa, N297A, V domains shown)
VH: QEQLEESGGDLVKPEGSLTLTCTGSGFSFSSIAYMCWIRQAPGKGLEWIGCIGSGSGNTYYANWAKGRFTISKSSSTTVTLQMTSLTAADTATYFCASDTNNGWLGQFNLWGQGTLVTVSS
VL: B3 VL with E12S, V13A, K22N, A31S, Y52S, S90G
notes: also called antibody Ab14
B6: Ab16 (antibody, human IgG1, kappa, N297A, V domains shown)
VH: B3 VH with E5V, D10G, K13Q, N32D, T58S, S62N, T79G, Q81K, L82M, N83T
VL: B3 VL with V13A, A31S, Y52S, K63S, Q70E, N97V
notes: also called antibody Ab16
B7: Ab10 (antibody, human IgG1, kappa, N297A, V domains shown)
VH: B4 VH with G50A, P54A, S56G, A57G, D58N, S62N, A73T, S76T
VL: B3 VL with D1N, V13A, A31N, A51T, Y52S, N97V, T98A
notes: also called antibody Ab10
B8: Ab1 (antibody, human IgG1, kappa, N297A, V domains shown)
VH: QSVEESGGRLVTPGTPLTLTCTVSGFSLSSYWMTWVRQAPGKGLEYIGIISSSGSTYYATWAKGRFTISKTSSTTVDLEITSPTTEDTATYFCARDSAFSSGLEFNIWGPGTLVTVSS
VL: AYDLTQTPASVEVAVGGTVTIKCQASQSVYSNWLSWYQQKPGQPPKLLIYDASDLASGVPSRFKGSGSGTQFTLTISGVQCDDAATYYCQQGQSSSDIDNTFGGGTEVVVKR
notes: also called antibody Ab1
B9: Ab13 (antibody, human IgG1, kappa, N297A, V domains shown)
VH: QSVEESGGRLVTPGTPLTLTCTVSGIDLSTYGVGWVRQAPGKGLEYIGIISSSGSTYYASWAKGRFTISKTSSTTVDLKMTSLTTEDTATYFCARDWSSTTGYYGYFNMWGPGTLVTVSS
VL: AFELTQTPSPVSAAVGGTVTIKCQASQSISTALAWYQQKPGQPPKLLIYGASNLESGVPSRFSGSGSGTQFTLTISDLECADAAIYYCQSSYGSSTLAFGGGTEVVVKR
notes: also called antibody Ab13
B10: Ab19 (antibody, human IgG1, kappa, N297A, V domains shown)
VH: EVQLVESGGGLVQPGGSLRLSCAASGIDLSSYAMGWVRQAPGKGLEYIGIIVSYGPTYYASWAKGRFTISRDNSKNTVYLQMNSLRAEDTATYFCARDLDAQSSGYYGAFNIWGQGTLVTVSS
VL: DIQMTQSPSTLSASVGDRVTITCQASQSISTALAWYQQKPGKAPKLLIYAASPLASGVPSRFSGSGSGTEFTLTISSLQPDDFATYYCQSYYGSSNIAFGGGTKVEIKR
notes: also called antibody Ab19
B11: Ab20 (antibody, human IgG1, kappa, N297A, V domains shown)
VH: B10 VH with N76S
VL: B10 VL
notes: also called antibody Ab20
B12: Ab4 (antibody, human IgG1, kappa, N297A, V domains shown)
VH: QSVEESGGRLVTPGTPLTLTCTVSGIDLSSYAMIWVRQAPEKGLEYIGYIGGIDSTYYASWAKGRFTISKTSTTVDLKMTSPTTEDTATYFCGRWSGTSGYNTIWGPGTLVTVSS
VL: DVVMTQTPASVEAAVGGTVTIKCQASQSIYSNLAWYQQKPGQPPKLLIYGASNLASGVSSRFKGSRSGTEYTLTISDLECADAATYYCQCTGGGDSGNTFGGGTEVVVKR
notes: also called antibody Ab4
B13: Ab7 (antibody, human IgG1, kappa, N297A)
heavy: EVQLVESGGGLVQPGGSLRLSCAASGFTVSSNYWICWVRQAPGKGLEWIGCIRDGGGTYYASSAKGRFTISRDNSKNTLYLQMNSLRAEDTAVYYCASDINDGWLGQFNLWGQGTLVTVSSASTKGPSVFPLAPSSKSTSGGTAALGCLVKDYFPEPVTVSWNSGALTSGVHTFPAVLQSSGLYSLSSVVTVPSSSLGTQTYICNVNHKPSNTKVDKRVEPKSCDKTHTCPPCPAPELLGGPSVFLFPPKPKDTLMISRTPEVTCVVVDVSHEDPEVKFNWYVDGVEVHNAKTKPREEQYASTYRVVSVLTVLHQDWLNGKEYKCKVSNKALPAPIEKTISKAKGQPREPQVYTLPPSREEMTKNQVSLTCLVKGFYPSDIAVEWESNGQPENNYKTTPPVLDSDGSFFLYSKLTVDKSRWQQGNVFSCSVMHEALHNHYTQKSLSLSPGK
light: ADIVMTQSPSSLSASVGDRVTIKCQASQSISAYLAWYQQKPGKVPKLLIYRAYTLASGVPSRFSGSGSGTDFTLTISSLQPEDVATYYCQSYYSVTTNTYGNTFGGGTKVEIKRTVAAPSVFIFPPSDEQLKSGTASVVCLLNNFYPREAKVQWKVDNALQSGNSQESVTEQDSKDSTYSLSSTLTLSKADYEKHKVYACEVTHQGLSSPVTKSFNRGEC
notes: also called antibody Ab7
B14: Ab12 (antibody, human IgG1, kappa, N297A)
heavy: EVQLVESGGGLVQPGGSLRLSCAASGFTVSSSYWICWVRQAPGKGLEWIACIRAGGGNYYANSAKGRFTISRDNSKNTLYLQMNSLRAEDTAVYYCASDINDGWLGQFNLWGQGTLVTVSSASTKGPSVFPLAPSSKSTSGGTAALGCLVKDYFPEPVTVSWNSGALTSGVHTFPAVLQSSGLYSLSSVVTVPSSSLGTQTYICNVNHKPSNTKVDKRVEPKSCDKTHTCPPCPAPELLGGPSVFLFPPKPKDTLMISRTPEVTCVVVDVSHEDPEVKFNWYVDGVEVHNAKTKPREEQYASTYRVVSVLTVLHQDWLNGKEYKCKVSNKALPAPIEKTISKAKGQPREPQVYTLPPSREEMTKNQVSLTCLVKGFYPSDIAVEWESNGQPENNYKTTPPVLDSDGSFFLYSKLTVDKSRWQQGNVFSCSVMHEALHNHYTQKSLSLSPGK
light: B13 light with D2N, A32N, A52T, Y53S, N98V, T99A
notes: also called antibody Ab12
B15: Ab18 (antibody, human IgG1, kappa, N297A)
heavy: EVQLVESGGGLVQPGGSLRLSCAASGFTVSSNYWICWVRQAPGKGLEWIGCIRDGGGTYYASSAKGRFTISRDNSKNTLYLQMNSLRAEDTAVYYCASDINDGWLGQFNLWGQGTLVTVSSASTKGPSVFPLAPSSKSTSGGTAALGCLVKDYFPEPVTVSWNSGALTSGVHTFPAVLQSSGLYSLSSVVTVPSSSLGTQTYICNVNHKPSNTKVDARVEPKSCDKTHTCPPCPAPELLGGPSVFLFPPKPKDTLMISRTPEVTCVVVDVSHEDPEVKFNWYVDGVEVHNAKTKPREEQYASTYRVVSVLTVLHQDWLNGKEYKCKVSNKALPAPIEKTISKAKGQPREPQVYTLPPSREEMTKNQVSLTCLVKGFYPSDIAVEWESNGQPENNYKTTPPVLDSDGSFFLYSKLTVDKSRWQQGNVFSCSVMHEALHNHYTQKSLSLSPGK
light: B13 light
notes: also called antibody Ab18
B16: Ab11 (antibody, human IgG1, kappa, N297A)
heavy: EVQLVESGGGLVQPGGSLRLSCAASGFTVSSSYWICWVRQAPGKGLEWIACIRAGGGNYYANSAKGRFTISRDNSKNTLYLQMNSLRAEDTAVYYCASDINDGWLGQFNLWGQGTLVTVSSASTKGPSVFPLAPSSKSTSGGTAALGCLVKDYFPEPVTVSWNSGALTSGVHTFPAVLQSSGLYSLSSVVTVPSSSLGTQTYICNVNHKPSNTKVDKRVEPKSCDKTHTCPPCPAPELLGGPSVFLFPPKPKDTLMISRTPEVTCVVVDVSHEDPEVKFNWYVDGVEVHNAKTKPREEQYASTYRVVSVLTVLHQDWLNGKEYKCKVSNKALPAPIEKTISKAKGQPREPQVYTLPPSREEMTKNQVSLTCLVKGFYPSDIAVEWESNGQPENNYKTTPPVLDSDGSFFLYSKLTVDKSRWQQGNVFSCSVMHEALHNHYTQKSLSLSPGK
light: B13 light with D2N, K23T, A32N, A52T, Y53S, N98V, T99A
notes: also called antibody Ab11
B17: Ab5 (antibody, human IgG1, kappa, N297A, V domains shown)
VH: QSVEESGGRLVTPGTPLTLTCTVSGFSLSSYAMSWVRQAPGKGLEWIGIISNSGTTYYASWAKGRFTISKTSTTVDLKITSPTTEDTATYFCARGIYWYWRVFNLWGPGTLVTVSS
VL: AVLTQTPSPVSAAVGGTVTINCQASQSVYNNLLSWYQQKPGQPPKLLIYDASNLASGVPDRFSGSGSGTQFTLTISGVQCDDAATYYCLGGYDDDADNAFGGGTEVVVKR
notes: also called antibody Ab5
B18: Ab9 (antibody, human IgG1, kappa, N297A, V domains shown)
VH: QSVEESGGRLVTPGTPLTLTCTVSGIDLSSYAMGWVRQAPGKGLEYIGIIVSYGPTYYASWAKGRFTISKTSTTVDLKITSPTAEDTATYFCARDLDANSSGYYGCFNIWGQGTLVTVSS
VL: AVVLTQTPASVSAAVGGTVTIKCQASQSISTALAWYQQKPGQPPKLLIYAASPLASGVSSRFKSSGSGTEFTLTISDLECADAATYYCQSYYGSSNIAFGGGTELEILR
notes: also called antibody Ab9
B19: Ab15 (antibody, human IgG1, kappa, N297A, V domains shown)
VH: QEQLEESGGDLVKPEGSLTLTCTASGFSFSSSYWICWVRQAPGKGLEWIACIDAGNSGSTYYASWAKGRFTISKASSTTVTLQMTSLTAADTATYFCASDLNDGWLGQFNLWGPGTLVTVSS
VL: NIVMTQTPSPVSGAVGGTVTIKCQASQSISDYLAWYQQKPGQPPKLLIYRASTLASGVPSRFRGSGSGTEYTLTITDLECADAATYYCQSYYSVTTNTYGNTFGGGTEVVVKR
notes: also called antibody Ab15
B20: Ab2 (antibody, human IgG1, kappa, N297A, V domains shown)
VH: QSVEESGGRLVTPGTPLTLTCTVSGFSLSSYAMSWVRQAPGKGLEWIGIIDAIDNTYYASWAKGRFTISKTSTTVDLKMTSLTTGDTATYFCARASILGYSIATGFNIWGPGTLVTVSS
VL: AYDMTQTPASVEVAVGGTVTIKCQASQSISSHLAWYQQKSGQPPKLLIYRASTLESGVSSRFKGSGSGTEFTLTISDLECADAATYYCQQGYGVSDVDNGFGGGTEVVVKR
notes: also called antibody Ab2

What follows are binders tested against T1, human Proprotein Convertase Subtilisin-like/Kexin type 9 (human, UniProt Q8NBP7 31-692, limits assumed) (assay: BLI (Octet QK), biotinylated antibody on streptavidin sensors, human PCSK9 in solution, 1:1 fit).
T1 construct: Biotinylated in the ELISAs; unlabelled analyte in BLI and SPR; also called human PCSK9; PCSK9
Method: Binding affinities of monoclonal antibodies for PCSK9 were estimated using Bio-Layer Interferometry (BLI) on the Octet QK (ForteBio). Biotinylated antibody was immobilized at different densities to the surface of Streptavidin (SA) Biosensors. A dilution series of human PCSK9 prepared in 1× Kinetics Buffer (NaCl 0.0138 M; KCl 0.00027 M; 0.1 mg/mL BSA, 0.002% Tween and 0.005% Sodium Azide; pH 7.4, at 25° C.) purchased from the manufacturer (ForteBio) was used to query the antibodies. At our chosen concentrations of antigen (˜0.25 μg/mL-2 μg/mL) association times of 15 minutes and dissociation times of 25 minutes were used with the Octet Analysis Software (v6.4, ForteBio), to globally fit data using a 1:1 Langmuir binding model.

T1 sequence (Q8NBP7 31-692 limits assumed): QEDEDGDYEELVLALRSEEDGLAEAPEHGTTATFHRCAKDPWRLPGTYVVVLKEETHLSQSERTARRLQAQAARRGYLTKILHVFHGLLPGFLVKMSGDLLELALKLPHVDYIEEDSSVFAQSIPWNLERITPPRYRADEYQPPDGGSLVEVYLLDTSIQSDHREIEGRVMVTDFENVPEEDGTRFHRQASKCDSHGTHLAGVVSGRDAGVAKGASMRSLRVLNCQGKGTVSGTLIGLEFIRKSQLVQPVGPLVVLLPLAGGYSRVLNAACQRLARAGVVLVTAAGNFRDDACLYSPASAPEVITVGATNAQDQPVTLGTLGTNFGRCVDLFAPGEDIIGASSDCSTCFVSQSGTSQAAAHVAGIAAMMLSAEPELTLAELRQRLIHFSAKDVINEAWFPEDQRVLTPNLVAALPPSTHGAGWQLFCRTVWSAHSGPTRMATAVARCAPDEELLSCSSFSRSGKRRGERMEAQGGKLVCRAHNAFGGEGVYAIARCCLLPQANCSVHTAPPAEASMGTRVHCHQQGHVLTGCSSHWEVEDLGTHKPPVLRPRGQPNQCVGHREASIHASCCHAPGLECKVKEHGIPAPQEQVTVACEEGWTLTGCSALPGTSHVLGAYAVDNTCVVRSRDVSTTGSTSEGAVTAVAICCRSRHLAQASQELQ

Kd [nM]	koff [s⁻¹]	kon [M⁻¹ s⁻¹]	Binder
0.637	4.91e-05	77000	B1
5.87	0.000554	94400	B2
0.531	4e-05	75300	B3
0.609	6.27e-05	103000	B4
3.7	0.000362	97900	B5
1.28	9.92e-05	77500	B6
0.676	5.09e-05	75300	B7
7.99	0.0013	162000	B8
2.23	0.000353	159000	B9
1.3	0.000116	88000	B10
0.6	6.63e-05	108000	B11
6	0.000422	70300	B12
0.379	2.68e-05	70700	B13
0.12	1.21e-05	100000	B14
0.215	2.09e-05	97000	B15
0.332	2.22e-05	66800	B16
3.16	0.000278	88100	B17
0.637	4.91e-05	77000	B18
0.839	5.8e-05	69200	B19
4.25	0.000453	107000	B20
